The values below are quoted from earlier work in publication PMC12060137.

In this data set the target is TfR1 (Homo sapiens) (UniProt P02786).
TfR1 (Homo sapiens), sequence (P02786 89-760): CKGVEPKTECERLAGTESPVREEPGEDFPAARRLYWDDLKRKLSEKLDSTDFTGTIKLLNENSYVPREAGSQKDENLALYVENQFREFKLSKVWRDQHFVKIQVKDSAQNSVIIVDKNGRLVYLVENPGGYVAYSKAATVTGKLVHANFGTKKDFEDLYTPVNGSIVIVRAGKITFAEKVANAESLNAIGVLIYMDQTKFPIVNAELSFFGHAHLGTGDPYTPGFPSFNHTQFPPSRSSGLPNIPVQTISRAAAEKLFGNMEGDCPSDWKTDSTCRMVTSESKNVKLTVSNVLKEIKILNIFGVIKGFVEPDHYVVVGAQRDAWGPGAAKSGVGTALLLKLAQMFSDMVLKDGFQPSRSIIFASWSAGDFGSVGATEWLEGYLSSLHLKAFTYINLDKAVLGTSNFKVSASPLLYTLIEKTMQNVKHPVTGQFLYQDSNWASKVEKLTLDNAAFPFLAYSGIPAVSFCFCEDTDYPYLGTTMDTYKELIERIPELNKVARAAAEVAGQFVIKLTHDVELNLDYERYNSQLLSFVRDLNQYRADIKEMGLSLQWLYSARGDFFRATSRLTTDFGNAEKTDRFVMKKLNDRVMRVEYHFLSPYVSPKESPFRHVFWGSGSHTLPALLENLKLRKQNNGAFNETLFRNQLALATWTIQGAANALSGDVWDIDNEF

HFt-W4 ferritin nanoparticle, sequence (P02794 2-183): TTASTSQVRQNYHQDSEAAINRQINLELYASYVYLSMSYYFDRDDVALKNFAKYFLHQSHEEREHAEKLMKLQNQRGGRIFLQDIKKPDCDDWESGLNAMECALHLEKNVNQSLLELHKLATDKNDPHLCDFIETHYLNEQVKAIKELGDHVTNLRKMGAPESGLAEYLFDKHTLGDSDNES

Regarding “HFt-W4 ferritin nanoparticle (from UniProt P02794)”, the Kd is 25 nM.
